In publication PMC12738837, “Structure of Trypanosoma peroxisomal import complex unveils conformational heterogeneity” (Nature Communications, 2025):
Changes are numbered by the printed parent chain. Numbers in names are those of the source. Where “and” joins values, the source holds several entries; their conditions need not be identical. Equal entries are not always repeated. Where two headings read alike, the source gives them in different places.

How the values were obtained:
[1] = target: Pex5_(eTPR)(N353E) + PTS1 peptide (Trypanosoma cruzi) (UniProt Q4DPQ9); experiment: ITC; Pex14NTD (175 μM) injected into Pex5_(eTPR) + PTS1 (20 μM + 50 μM peptide) in the cell; 20 mM sodium phosphate, 100 mM NaCl, pH 6.5; 25 °C
[2] = target: Pex5_(eTPR) + PTS1 (complex of Pex5_(eTPR) with the PTS1 peptide, prepared before ITC) (Trypanosoma cruzi) (UniProt Q4DPQ9); experiment: as above
[3] = target: Pex5_(eTPR)(Y358A) + PTS1 peptide (Trypanosoma cruzi) (UniProt Q4DPQ9); experiment: as above
[4] = target: Pex5_(eTPR) with a GSGS-spacer between the Pex5 TPR domain and Wxxx(F/Y) motif + PTS1 peptide (Trypanosoma cruzi) (UniProt Q4DPQ9); experiment: as above
[5] = target: Pex5eTPR(GSGS) (Trypanosoma cruzi) (UniProt Q4DPQ9); experiment: ITC; Pex14NTD (175 uM, syringe) injected into Pex5eTPR in the cell, in the absence of PTS1 peptide; 20 mM sodium phosphate, 100 mM NaCl, pH 6.5, 25 °C
[6] = target: Pex5eTPR(N353E) (Trypanosoma cruzi) (UniProt Q4DPQ9); experiment: as above
[7] = target: Pex5eTPR (truncated Pex5, extended TPR domain with one Wxxx(F/Y) motif; residues 314-666), Trypanosoma cruzi (Trypanosoma cruzi) (UniProt Q4DPQ9); experiment: as above
[8] = target: Pex5eTPR(Y358A) (Trypanosoma cruzi) (UniProt Q4DPQ9); experiment: as above
[9] = target: MDH(GSGS) linker variant (Trypanosoma cruzi); experiment: ITC; Pex5_(eTPR) (250 μM) injected into MDH (25 μM) in the cell; 100 mM Hepes, 150 mM NaCl, 2 mM β-mercaptoethanol, pH 7.5; 25 °C
[10] = target: MDH(Δ62–70) (Trypanosoma cruzi); experiment: as above
[11] = target: MDH(GSGS), glycosomal malate dehydrogenase with a GSGS linker between MDH and its PTS1 (Trypanosoma cruzi); experiment: ITC; Pex5eTPR in the syringe injected into MDH in the cell; 100 mM Hepes, 150 mM NaCl, 2 mM beta-mercaptoethanol, pH 7.5, 25 °C; independent model; single titrations (replicates), each fitted by itself
[12] = target: glycosomal malate dehydrogenase (MDH), wild type (Trypanosoma cruzi); experiment: as above
[13] = target: Pex5eTPR(Y358A) mixed beforehand with the PTS1 peptide of MDH (Trypanosoma cruzi) (UniProt Q4DPQ9); experiment: ITC; Pex14NTD in the syringe injected into Pex5eTPR + PTS1 peptide in the cell; 20 mM sodium phosphate, 100 mM NaCl, pH 6.5, 25 °C; independent model
[14] = target: Pex5eTPR (wild type) mixed beforehand with the PTS1 peptide of MDH (Trypanosoma cruzi) (UniProt Q4DPQ9); experiment: as above
[15] = target: Pex5eTPR(N353E) mixed beforehand with the PTS1 peptide of MDH (Trypanosoma cruzi) (UniProt Q4DPQ9); experiment: as above
[16] = target: glycosomal malate dehydrogenase (MDH, residues 1–323) (Trypanosoma cruzi) (UniProt Q4DRD8); experiment: ITC; Pex5_(eTPR) (250 μM) injected into MDH (25 μM) in the cell; 100 mM Hepes, 150 mM NaCl, 2 mM β-mercaptoethanol, pH 7.5; 25 °C
[17] = target: PTS1 peptide derived from MDH (NH2-ARSKL-COOH) (Trypanosoma cruzi); experiment: ITC; Pex5_(eTPR) with the PTS1 peptide (NH2-ARSKL-COOH); who was in the cell is not stated for the peptide; 25 °C
[18] = target: 6-FAM labeled PTS1 peptide; experiment: fluorescence polarisation
[19] = target: T1, PTS1 peptide derived from MDH (NH2-ARSKL-COOH) (Trypanosoma cruzi); experiment: ITC; Pex5_(eTPR) with the PTS1 peptide (NH2-ARSKL-COOH); who was in the cell is not stated for the peptide; 25 °C
T1 chain: ARSKL

[20] = target: 6-FAM labeled PTS1 peptide; experiment: fluorescence polarisation; remark: listed apart in the source
[21] = target: T2, glycosomal malate dehydrogenase (MDH, residues 1–323) (Trypanosoma cruzi), Q4DRD8; experiment: ITC; Pex5_(eTPR) (250 μM) injected into MDH (25 μM) in the cell; 100 mM Hepes, 150 mM NaCl, 2 mM β-mercaptoethanol, pH 7.5; 25 °C
T2 chain: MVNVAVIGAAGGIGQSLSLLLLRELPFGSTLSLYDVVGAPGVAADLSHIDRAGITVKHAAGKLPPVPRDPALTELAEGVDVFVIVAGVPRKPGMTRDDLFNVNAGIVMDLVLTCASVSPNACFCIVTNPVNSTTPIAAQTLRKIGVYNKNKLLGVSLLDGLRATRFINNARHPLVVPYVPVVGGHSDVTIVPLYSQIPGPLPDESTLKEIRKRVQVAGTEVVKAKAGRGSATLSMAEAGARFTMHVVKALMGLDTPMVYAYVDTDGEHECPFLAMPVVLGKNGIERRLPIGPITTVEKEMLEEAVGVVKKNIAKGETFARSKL

[22] = target: T3, glycosomal malate dehydrogenase (MDH, residues 1–323) (Trypanosoma cruzi, UniProt Q4DRD8 1-323); experiment: as above; details: both partners purified
T3 construct: glycosomal malate dehydrogenase (MDH), Trypanosoma cruzi, residues 1-323, UniProt Q4DRD8; Tetramer (two dimers related by D2 symmetry) by cryo-EM; also called cargo; MDH tetramer; source: E. coli BL21 (DE3), purified (Ni-NTA, SEC)
T3 sequence (looked up): T2 chain

[23] = target: Pex5_(eTPR) (residues 314–666), truncated Pex5 containing an extended TPR domain with a single Wxxx(F/Y) motif (Trypanosoma cruzi, UniProt Q4DPQ9 316-668); experiment: ITC; Pex5_(eTPR) with the PTS1 peptide (NH2-ARSKL-COOH); who was in the cell is not stated for the peptide; 25 °C; details: both partners purified

N-terminal domain of Pex14 (Pex14NTD; residues 21–85) (domain or fragment)
Kd [1]: 45 nM | dH [1]: -13.8 kcal/mol | stoichiometry N [1]: 0.659 | Kd [2]: 53 nM | dH [2]: -15.4 kcal/mol | stoichiometry N [2]: 0.671 | Kd [3]: 81 nM | dH [3]: -13.7 kcal/mol | stoichiometry N [3]: 0.88 | Kd [4]: 178 nM | dH [4]: -12.6 kcal/mol | stoichiometry N [4]: 0.7

N-terminal domain of Pex14 (Pex14NTD; residues 21-85), Trypanosoma cruzi (domain or fragment)
Kd [5]: 122 nM | stoichiometry N [5]: 0.568 | Kd [6]: 48 nM | stoichiometry N [6]: 0.738 | stoichiometry N [7]: 0.657 | Kd [8]: 119 nM | stoichiometry N [8]: 0.762

Pex5_(eTPR) (residues 314–666), truncated Pex5 containing an extended TPR domain with a single Wxxx(F/Y) motif (from UniProt Q4DPQ9 316-668) (domain or fragment)
Kd [9]: 148 nM | dH [9]: -5.74 kcal/mol | stoichiometry N [9]: 0.543 | Kd [10]: 1000 nM | dH [10]: -6.07 kcal/mol | stoichiometry N [10]: 0.5

Pex5eTPR, truncated Pex5 with the extended TPR domain and a single Wxxx(F/Y) motif, wild type (from UniProt Q4DPQ9 314-666) (domain or fragment)
Ka [11]: 5.79e+06 M⁻¹ and 8.29e+06 M⁻¹ | Kd [11]: 173 nM and 121 nM | stoichiometry N [11]: 0.722 and 0.503 | Ka [12]: 2.03e+06 M⁻¹ and 2.77e+06 M⁻¹ and 2.21e+06 M⁻¹ | Kd [12]: 492 nM and 361 nM and 453 nM | stoichiometry N [12]: 0.309 and 0.622 and 0.265

N-terminal domain of Pex14 (Pex14NTD), wild type (domain or fragment)
Ka [13]: 1.24e+07 M⁻¹ | Ka [14]: 1.9e+07 M⁻¹ | Ka [15]: 2.24e+07 M⁻¹

Pex5_(eTPR)(Δ470–480) (from UniProt Q4DPQ9 316-668) (domain or fragment)
Kd [16]: 102 nM | dH [16]: -6.88 kcal/mol | stoichiometry N [16]: 0.452 | Kd [17]: 420 nM | dH [17]: -6.31 kcal/mol | stoichiometry N [17]: 1.04

Pex5_(eTPR) in presence of excess Pex14NTD (from UniProt Q4DPQ9 316-668) (complex)
Kd [18]: 80 nM

Pex14NTD(Q52A) (domain or fragment)
Ka [14]: 1.86e+07 M⁻¹ | Kd [7]: 17 nM | stoichiometry N [7]: 0.647 | Kd [2]: 54 nM | dH [2]: -15.7 kcal/mol | stoichiometry N [2]: 0.664

Pex14NTD(A48F) (domain or fragment)
Ka [14]: 8.24e+06 M⁻¹ | Kd [7]: 59 nM | stoichiometry N [7]: 0.68 | Kd [2]: 121 nM | dH [2]: -18.3 kcal/mol | stoichiometry N [2]: 0.608

B1: Pex5_(eTPR) (residues 314–666), truncated Pex5 containing an extended TPR domain with a single Wxxx(F/Y) motif, Q4DPQ9 316-668 (domain or fragment)
chain: MDDGALDNAADVEEWVREYAEAQEQLQRVQNETNYPFEPNNPYMYHDKPMEEGIAMLQLANMAEAALAFEAVCQKEPENVEAWRRLGTTQAENEKDCLAIIALNHARMLDPKDIAVHAALAVSHTNEHNVGAALQSLRSWLLSQPQYEHLGLVDLREVAADEGLDEVPEENYFFAAPSEYRDCCTLLYAAVEMNPNDPQLHASLGVLHNLSHRFDEAAKNFRRAVELRPDDAHMWNKLGATLANGNRPQEALEAYNRALDINPGYVRVMYNMAVSYSNMAQYPLAAKHITRAIALQAGGTNPQGEGSRIATRGLWDLLRMTLNLMDRSDLVEASWQQDLTPFLREFGLEEMAV
modifications: not checked
dH [19]: -5.02 kcal/mol | stoichiometry N [19]: 0.933 | Kd [20]: 254 nM | dH [21]: -6.33 kcal/mol | stoichiometry N [21]: 0.398

B2: Pex5_(eTPR)(R625A, D629A) (domain or fragment)
chain: B1 chain with V16A, R156Q, M234T, R312A, D316A, R344K, E350D
notes: source: E. coli BL21 (DE3), purified as wild type (Ni-NTA, SEC)
dH [22]: -5.38 ± 0.12 kcal/mol | stoichiometry N [22]: 0.5 ± 0.006

B3: Pex5_(eTPR)(P490R) (domain or fragment)
chain: B1 chain with V16A, R156Q, P177R, M234T, R344K, E350D
notes: as for B2
dH [22]: -6.43 ± 0.215 kcal/mol | stoichiometry N [22]: 0.292 ± 0.006

B4: PTS1 peptide derived from MDH (NH2-ARSKL-COOH) (peptide)
peptide: H-ARSKL-OH
notes: short peptide encompassing PTS1 of T. cruzi glycosomal MDH, residues 319-ARSKL-323; also called MDH-derived PTS1 peptide
Kd [23]: 135 ± 19 nM
